From a protein production outcome set (Wang et al. 2014) come the findings set out here.

The data set can be described thus: label from the status in PepcDB records.

As to “MSTPTAADRAKALERKNEGNVFVKEKHFLKAIEKYTEAIDLDSTQSIYFSNRAFAHFKVDNFQSALNDCDEAIKLDPKNIKAYHRRALSCMALLEFKKARKDLNVLLKAKPNDPAATKALLTCDRFIREERFRKAIGGAENEAKISLCQTLNLSSFDANADLANYEGPKLEFEQLYDDKNAFKGAKIKNMSQEFISKMVNDLFLKGKYLPKKYVAAIISHADTLFRQEPSMVELENNSTPDVKISVCGDTHGQFYDVLNLFRKFGKVGPKHTYLFNGDFVDRGSWSCEVALLFYCLKILHPNNFFLNRGNHESDNMNKIYGFEDECKYKYSQRIFNMFAQSFESLPLATLINNDYLVMHGGLPSDPSATLSDFKNIDRFAQPPRDGAFMELLWADPQEANGMGPSQRGLGHAFGPDITDRFLRNNKLRKIFRSHELRMGGVQFEQKGKLMTVFSAPNYCDSQGNLGGVIHVVPGHGILQAGRNDDQNLIIETFEAVEHPDIKPMAYSNGGFGL”, the protein production entry was “not failed”.
Turning to “MSTQDERQINTEYAVSLLEQLKLFYEQQLFTDIVLIVEGTEFPCHKMVLATCSSYFRAMFMSGLSESKQTHVHLRNVDAATLQIIITYAYTGNLAMNDSTVEQLYETACFLQVEDVLQRCREYLIKKINAENCVRLLSFADLFSCEELKQSAKRMVEHKFTAVYHQVAFMQLSHDLLIDIFSSDNLNVEKEETVREAAMLWLEYNTESRSQYLSSVLSQIRIDALSEVTQRAWFQGLPPNDKSVVVQGLYKSMPKFFKPRLGMTKEEMMIFIEASSENPCSLYSSVCYSPQAEKVYKLCSPPADLHKVGTVVTPDNDIYIAGGQVPLEKHKNKSQ”, the protein production entry is listed as “failed”.
As for “MSTQSEAILEENLLKQLVSLGYEKVLIRDEAELLANLKAQLERHNKITLDDMEFSRILNHLNKGNVFEKAKILRDKFALTREDGTTKYIEFLDTERWCQNLFQVTHQVTIEGSYKNRYDVTILINGLPLVQIELKRRGLELKEAFNQINRYQRHSYGANSALFHYVQIFVISNGVNTKYYANNRNQSFKQTFFWADKENKNITNLNEFTDLFLEPCHISKMICKYVVLAEATKTLMILRPYQYHATEAIIDRVVNTNKNGYIWHTTGSGKTLTSFKTAQILMKLPNVHKVVFVVDRKDLDYQTTKEFNSFSQGSVDGTDNTASLVRQFSDDTRLIVTTIQKLNTAINKQRYLEKMKNLRDKRIVFIFDECHRSQFGDTHRNITKFFNNYQMIGFTGTPIFADNATGNKFGKRTTKELFDECLHKYVITDAIADENVLKFSVEYIGRYKEREGSQNNLDIEVEDIDTKELLESPERLEKIVDYIIAHHDRKTHSKEFTAMMCVSSVDVLTKYYELFRSKQHGLKIATIFSYSTNEDDKDANGLDSLEESDGAHVDEEHINMHSRDKLEEYIAHYNTMFGTNFTTKDSQSFYNYYNDISKRVKNQEVDILLVVNMFLTGFDSKTLNTLYVDKNLKYHGLIQAFSRTNRILNEKKSQGNILCFRNLKKATDAAIALFSNKNAKEIILMKSYEEYVEKFIEALKKLKEIAPTIDSVDSLYDEESKLEFIKAFRELMRIQNILGSFADFSFADLGIAEQEFEEYKSKYLDIHDTIKREGKEKVSILEDVDFELELIHKDEINVTYILKLLAQLKDASEQEHQTQRQNIINIINGNAQLRSKRELIERFIDAHLMSLEDIDMVDGAFEKFWNEEKLKAFDALCEEENLNKEKVKKVVDTYLYDERPPLSDDIANTLNIKPKLLERRKVVPRVLDKIMTFVDRFYT”, the entry is “failed”; as for “MSTRSMSAPANATVADVAAGDAIRSLDPSIRAVWAIKMAAFSMFLFLPALFYDLTHLFSPDSWLPFGVLSGTVLVGGVLYCVAWPRLRYRAWGFVLRPEELYMEHGVLQHVRTIVPLRRIQHVDVSQDLIEREFALGRLVVHTAGSRSSDVVIPGLPLSEAETIRDKIKRFILEDPLTEEPV”, “failed”; as for “MSTTALVGTGHRPTIVLVGHGMVGQRFLEALAERGLTATHRVVVLCEEPRPAYDRVQLTSYFSGTTPDELSMTDAEFITEHGIDLRLGDPAETVDREARTVTARSGLVIAYDTLVLATGSYPFVPPVPGKDAEGCFVYRTIEDLLAIEAYAKSRATTGAVVGGGLLGLEAAGALKGLGLTSHIVEFAPRLMPVQVDAGGGAALLRTIEDMGLTVHTGTGTQEIVTGDDGAVTGMKLSDGSELATDLVVFSAGVRPRDQLARDCGLPVGERGGIAVDAQCRTEDPHVFAIGECALAADGRVYGLVAPGYEMAETAAATIASADSSFTGADLSTKLKLLGVDVASFGDAHGATAGCLDVVYADSRSGTYKKLVIGRDGELLGGILVGDADAYGTLRALTGSVPPVSPEQLVLPAGGGGGVALGPSALPDSAVICSCHNVTKGAIRGAVTEHSCTTLPEVKKCTKAGTGCGSCVKVLGQLVNDELTASGVEVDHGLCGCFTQTREELYEIVLALRITSYRSLLDRYGREGARGGDGCEVCKPTVGSIIASLAPTIGANGYVLDGEQSALQDTNDHFLANLQKNGSYSIVPRIPGGEITPEKLIVIGEVARDFGLYTKITGGQRIDLFGARVEQLPLIWTRLVDAGFESGHAYGKSLRTVKSCVGQSWCRYGVQDSVRMAIDLELRYRGLRSPHKLKSAVSGCARECAEAQSKDFGIIATANGWNLYVGGNGGATPRHADLLAQDLSDAELVRLIDRFLMFYIRTADRLERTSVWLERIPGGLDHIRDVVVHDSLGICEELESLMTAHVANYRDEWTETINDPEKLARFVSFVNAPDTPDPVVGFVPERDQIKPDLPLLTIGHRPLEGSAQR”, “failed”.
The result for “MSTTGDSAPQISGTAESAKECADWQALLERIPYAQHLGLEVQRGDVGVLVHLPCREALIGNFMLPALHGGVLGALIELTARVAAQSQDAETRCPRILDSHINYLRSAKARSTFARADIIRQGRRTSLVQVTCWQGDDKKPIATGQVQLLLPTMAAQQEDRHGH” reads “failed”.
“MSTTQLKVKEINEELDSRPAVPPINDIRSYIAALEAHGVLHRVKAEVDWKFELAHISKVNEEQKGPALLYENVKGNTIPVFTSAFTTPERIAICLEQDPSLSMCQLSRKWMELTTKQMIKPTFVKNPPVMENIIEEKDVDLENFPAPWFYPDDGGRFFGTSGYLVTQDPDTGWTNLGTYRSQILGKNILGSQIISGKHGDFHMKKYQERGEKMPVAYVVGGDPILFLASSTLVSAQTDEYDVGGALRGRPIEVFKSDLTGLTLPANAEIIVEGWMDPEELMEEGPFGEYTGYYSGNKMKDYPKPVIRVKRIIHRNKPIFWSTTVGKPINDTHMVQSINRTATLWHDLETMKVPGIQSVYFPAAATGRFWVVASVKQMYPGHSNHVADAINGSTTGHYGVKGIIIVDHDIAADDMDRVWWALAVRFDPKRSTQIITRGRSTPLDPGLPIEARDVVSRIILDATIPYEWKNKPNEIFMDRTVLQKVSDRWNEYGFTGASPVAEMIPRLTRPEVKKK”: the protein production entry is reported as “failed”.
In the case of “MSTTYYWLCLLASIVFEVAGTSVMKLSQETWPLLGMGCMYLLLGLSYFFLARAVVKLPVGVAYAFWEGLGLTLITIVSVTLLDERLDAMRLAALGMVLAGTLLVHHGTAHGRDDEEAEAASGGEGRI”, the protein production result is reported as “failed”.
For the sequence “MSTYLIGDIHGCLDELLALLAQVNFDPQQDTLWLTGDLVARGPASLDVLRYVRSLGPAVRMVLGNHDLHLLAVYAGISRNKPKDRITPLLDAPDADELINWLRRQPVLQVDDQLKLIMAHAGITPQWDIETAKMCAREVEAVLSSDSYPLFLDAMYGDMPNNWSPELTGLARLRFSTNALTRMRFCFPNGQLDMICKDTPENAPAPLKPWFDLPRLVDPEYSIIFGHWASLEGKGVPEGIYGLDTGCCWGGDLTLLRWDDKRYFTQRAFKAEAEINNNNGFAAGEAVQH”, the protein production entry is “failed”.
With “MSTYYNDHLAAAEKDISSSNFCNLVDASVMLYDEEHRDLLPKKVNSRCQAKTKKQEKESDKRFFDLFPKKRRTSVVTVRNPEQNQQNLHRVSTSSSLLDLNTIPGDSSDPRNELQGLLSSSSSSFLGDYERKTPQNASSSSTLLAEYNTEMANPPNPNSETSLKRKHSDSEPKKAKTPYSWKGREAPEWLVKMMGTMQGSEGPRLIYEKTLTETDVKPVQSRLLMPFNTLIRNDFLTPVELRILLELEDDTDGVGATLVDPWEVKWGVILKKREMKKYSGKGSLNYAIICGWNDIVEANVLEKDDDISIWSFRRGRNGILSFALVLPPPPDMA”, the protein production entry is “failed”.
In the case of “MSVAFVPDWLRGKAEVNQETIQRLLEENDQLIRCIVEYQNKGRGNECVQYQHVLHRNLIYLATIADASPTSTSKAME”, the protein production result was “failed”.
